B1: library; numbered along this chain (parent)
chain: MRKPRAAVGSGHRKQAASQEGRQKHAKNNSQAKPSACDGLARQPEEVVLQASVSSYHLFRDVAEVTAFRGSLLSWYDQEKRDLPWRRRAEDEMDLDRRAYAVWVSEVMLQQTQVATVINYYTGWMQKWPTLQDLASASLEEVNQLWAGLGYYSRGRRLQEGARKVVEELGGHMPRTAETLQQLLPGVGRYTAGAIASIAFGQATGVVDGNVARVLCRVRAIGADPSSTLVSQQLWGLAQQLVDPARPGDFNQAAMELGATVCTPQRPLCSQCPVESLCRARQRVEQEQLLASGSLSGSPDVEECAPNTGQCHLCLPPSEPWDQTLGVVNFPRKASRKPPREESSATCVLEQPGALGAQILLVQRPNSGLLAGLWEFPSVTWEPSEQLQRKALLQELQRWAGPLPATHLRHLGEVVHTFSHIKLTYQVYGLALEGQTPVTTVPPGARWLTQEEFHTAAVSTAMKKVFRVYQGQQPGTCMGSKRSQVSSPCSRKKPRMGQQVLDNFFRSHISTDAHSLNSAAQ

Variants of: B1
Test: 8OG:A repair function score (normalized; synonymous = 0, nonsense = -1) (normalized log-likelihood score); higher = more repair activity (WT-like)
Conditions: with 8OG:A DNA repair reporter (GFP) in HEK-293 MUTYH KO cells
Method in brief: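 With 10 pg/ml doxycycline, MUTYH knockout HEK-293 cells carrying lentiviral MUTYH cDNA NNN codon-scan libraries were co-transfected with mCherry and an 8OG:A GFP repair reporter. Viable mCherry+ cells were sorted into GFP+ (repair) and GFP− bins at 72 h, three replicates per tile, and tile amplicons were sequenced. Per-tile Rosace fitness scores were then normalized into a repair function score anchored on synonymous and nonsense distributions. Medians were fixed at 0 for synonymous and -1 for nonsense, excluding variants under 300 counts per million at the start.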

8OG:A repair function score of substitutions, site by site:
S367: E 0.154; C -0.0437; Q -0.113; Y -0.204; F -0.13; V 0.0128; I -0.335; T 0.119; W 0.00054; P -0.0154; D -0.0756; A -0.145; K 0.111; G -0.159; M 0.226; H -0.207; R -0.201; N 0.179; L -0.139
L373: C -0.611; D -1.15; F 0.16; Y -0.225; N -0.777; S -0.647; R -0.666; M -0.286; A -0.596; Q -0.26; H -0.452; V -0.504; E -0.788; W -0.229; T -0.0654; K -0.314; P -1.03; G -0.502; I -0.315
W381: K -0.184; E 0.244; M 0.148; L 0.07; C 0.15; G 0.0649; A 0.0585; I 0.0761; F -0.181; D -0.141; H 0.26
G368: P -0.423; M -0.799; S -0.236; E -0.692; F -0.769; R -0.193; A -0.292; D -0.434; C -0.369; N -0.146; H -0.275; I -0.7; T -0.332; V -0.27; Y -0.663; Q -0.304; K -0.348; W -0.913; L -0.532
R364: C -0.262; I -0.878; Y -0.593; K -0.245; P -0.519; F -0.639; A -0.285; W -1.11; V -0.616; H -0.405; M -0.577; Q -0.529; G -0.353; D -0.614; L -0.747; N -0.633; T -0.411; E -0.504; S -0.2
L369: Q 0.0329; N 0.0162; F 0.0478; G -0.359; P 0.0626; H -0.345; T 0.0329; I -0.0978; V -0.297; C -0.0782; D -0.723; A 0.0443; E -0.807; Y 0.153; K -0.206; S -0.169; R 0.0308; W 0.187; M 0.201
F376: A -0.775; P -1.02; R -1.31; D -0.964; M -0.13; S -0.657; L -0.608; Y -0.715; K -0.92; W -0.757; E -1.28; N -1.17; T -0.441; I -0.775; V -0.809; G -1.2; Q -1.35; C -0.559; H -0.879
W374: L -0.36; I -0.729; F -0.33; D -0.78; K -0.692; M 0.217; H -0.924; Q -0.828; Y -0.274; E -0.436; V -0.874; C -0.633; P -1.01; T -1.02; N -0.645; R -1.03; G -0.847; A -1.1; S -0.607
S378: Q 0.0825; V -0.2; D -0.953; G -0.248; I -0.143; C 0.0237; L -0.171; M -0.037; E -0.297; Y -0.26; F -0.0771; T 0.295; K -0.24; P -0.772; N 0.0818; W -0.346; A -0.104; R -0.122; H -0.255
L370: M -0.659; V -0.484; F -0.461; E -1.06; I -0.377; D -1; C -0.0696; K -0.936; Y -0.258; A -0.326; P -0.657; T -0.332; Q -0.398; H -0.297; G -0.609; R -0.775; W -0.364; S -0.406; N -0.379
P377: A -0.486; K -1.11; R -1.04; H -1.31; E -1.13; T -0.573; V -0.171; W -1.42; C -0.633; D -1.06; F -1.17; N -0.977; L -0.733; S -0.809; Y -0.964; G -1.26; Q -0.969; M -1.07; I -0.348
E375: V -0.423; R -0.462; M -0.229; C -0.342; D -0.434; F -0.673; S -0.243; I -0.715; T -0.355; L -0.83; Y -0.285; H -0.347; K -0.462; A -0.313; W -0.45; Q 0.0245; P -0.897; G -0.0637; N -0.407
P365: L -0.0397; G -0.137; D 0.00966; W -0.0852; N 0.119; V 0.0242; A -0.0399; T -0.334; R -0.0845; M -0.184; K 0.177; E 0.196; S -0.116; I 0.146; Q -0.147; C 0.0287; F -0.154; Y -0.212; H -0.038
A371: D -0.824; Y -0.46; E -0.577; P -0.216; W -0.408; R -0.219; S -0.172; H -0.324; N -0.476; Q -0.374; M -0.439; V -0.554; L -0.5; I -0.776; G 0.0402; C -0.182; F -0.605; T -0.307; K -0.182
T380: M -0.0793; H -0.465; Y 0.0876; P -0.128; A 0.0285; G 0.0924; S 0.139; R 0.162; W -0.271; C -0.0502; N -0.171; I -0.128; V -0.0828; D 0.0495; L -0.0431; E -0.0632; Q 0.429; F 0.194; K -0.0484
G372: V -0.75; W -0.135; H -0.297; I -0.775; Y -0.393; L -0.351; F -0.294; S -0.15; T -0.157; D -0.324; A -0.461; R -0.304; E -0.387; K -0.479; P -0.669; Q -0.291; M -0.639; C -0.263; N -0.294
V379: M -0.148; S -0.0246; G -0.37; L -0.463; E -0.777; H -0.391; A 0.00194; Y -0.744; F -0.299; D -0.793; C -0.214; N -0.658; Q -0.792; K -0.667; I -0.327; P -0.937; R -0.476; T -0.0632; W -0.453
N366: V -0.0917; I -0.169; C -0.137; D -0.00541; R -0.0785; P -0.104; M -0.0331; K -0.0179; H 0.288; G -0.066; E 0.176; T -0.00609; A 0.0425; L -0.0714; Y 0.00766; W -0.042; S 0.0203; Q 0.152; F -0.0908

From the supplement of paper PMC11908140
